Measured values reported in PMC3210727.
Values joined by “and” are separate entries in the source; they are usually repeats but may differ in a detail not shown here. Equal entries are not always repeated.

Molecular target: H3N2 A/Hong Kong/1/1968 HA [change] (influenza A virus A/Hong Kong/1/1968 (H3N2))

## human monoclonal antibody CR8020
  Kd: 2 nM and 3 nM
